Results: paper doi:10.1101/2022.01.21.477187 (bioRxiv, 2022)

Legend:
[1] = target: the molecule itself; assay: native gel or EMSA; native PAGE of purified CENP-E483; species at ~100 kDa and ~230 kDa
[2] = target: the molecule itself; assay: single-molecule photobleaching steps and initial intensity (TIRF); 0.5 nM fluorescent motor adsorbed non-specifically on silanised coverslips, BRB80 with oxygen scavengers; bleaching steps counted by hand; K560-2mNG as intensity reference

Protein | stoichiometry N [1] | binding result [2]
human CENP-E483 followed by two tandem mNeonGreen fluorophores (domain or fragment, UniProt Q02224 1-483, looked up, CENP-E, human, N-terminal truncation with the motor domain and the first predicted coiled-coil (334-401); Codon-optimised synthetic gene in pFastBac1; predicted monomer mass 109 kDa with the tags; also called truncated CENP-E483; source: Sf9 cells (baculovirus), purified (HisTrap HP, Superose 6 Increase); not shown: 2x tandem mNeonGreen, C-terminal, kept) MAEEGAVAVCVRVRPLNSREESLGETAQVYWKTDNNVIYQVDGSKSFNFDRVFHGNETTKNVYEEIAAPIIDSAIQGYNGTIFAYGQTASGKTYTMMGSEDHLGVIPRAIHDIFQKIKKFPDREFLLRVSYMEIYNETITDLLCGTQKMKPLIIREDVNRNVYVADLTEEVVYTSEMALKWITKGEKSRHYGETKMNQRSSRSHTIFRMILESREKGEPSNCEGSVKVSHLNLVDLAGSERAAQTGAAGVRLKEGCNINRSLFILGQVIKKLSDGQVGGFINYRDSKLTRILQNSLGGNAKTRIICTITPVSFDETLTALQFASTAKYMKNTPYVNEVSTDEALLKRYRKEIMDLKKQLEEVSLETRAQAMEKDQLAQLLEEKDLLQKVQNEKIENLTRMLVTSSSLTLQQELKAKRKRRVTWCLGKINKMKNSNYADQFNIPTNITTKTHKLSINLLREIDESVCSESDVFSNTLDTLSEIE | 2 | 
truncated human CENP-E754 containing five predicted coiled-coils of the native stalk (domain or fragment, UniProt Q02224 1-754, looked up, CENP-E, human, N-terminal truncation with the motor domain and five predicted coiled-coils; source: Sf9 cells (baculovirus), purified (HisTrap HP, Superose 6 Increase); not shown: 2x tandem mNeonGreen, C-terminal, kept) MAEEGAVAVCVRVRPLNSREESLGETAQVYWKTDNNVIYQVDGSKSFNFDRVFHGNETTKNVYEEIAAPIIDSAIQGYNGTIFAYGQTASGKTYTMMGSEDHLGVIPRAIHDIFQKIKKFPDREFLLRVSYMEIYNETITDLLCGTQKMKPLIIREDVNRNVYVADLTEEVVYTSEMALKWITKGEKSRHYGETKMNQRSSRSHTIFRMILESREKGEPSNCEGSVKVSHLNLVDLAGSERAAQTGAAGVRLKEGCNINRSLFILGQVIKKLSDGQVGGFINYRDSKLTRILQNSLGGNAKTRIICTITPVSFDETLTALQFASTAKYMKNTPYVNEVSTDEALLKRYRKEIMDLKKQLEEVSLETRAQAMEKDQLAQLLEEKDLLQKVQNEKIENLTRMLVTSSSLTLQQELKAKRKRRVTWCLGKINKMKNSNYADQFNIPTNITTKTHKLSINLLREIDESVCSESDVFSNTLDTLSEIEWNPATKLLNQENIESELNSLRADYDNLVLDYEQLRTEKEEMELKLKEKNDLDEFEALERKTKKDQEMQLIHEISNLKNLVKHAEVYNQDLENELSSKVELLREKEDQIKKLQEYIDSQKLENIKMDLSYSLESIEDPKQMKQTLFDAETVALDAKRESAFLRSENLELKEKMKELATTYKQMENDIQLYQSQLEAKKKMQVDLEKELQSAFNEITKLTSLIDGKVPKDLLCNLELEGKITDLQKELNKEVEENEALREEVILLSELKSLPS |  | binds
